The source of these data is paper PMC6969876, “NADPH biosensor-based identification of an alcohol dehydrogenase variant with improved catalytic properties caused by a single charge reversal at the protein surface” (AMB Express, 2020).

The data set deals with the molecule itself. Briefly: SEC; Superdex 200 increase 10/300 GL, buffer A (50 mM triethanolamine hydrochloride, 1 mM MgCl2, pH 7.0), 0.75 mL/min; apparent native mass from a calibration curve with carbonic anhydrase, bovine serum albumin, alcohol dehydrogenase and beta-amylase; affinity-purified protein loaded.

B1: NADPH-dependent alcohol dehydrogenase of Lactobacillus brevis, wild type (LbADH^WT), with N-terminal Strep-tag II (enzyme, UniProt Q84EX5 1-252, looked up)
chain: MSNRLDGKVAIITGGTLGIGLAIATKFVEEGAKVMITGRHSDVGEKAAKSVGTPDQIQFFQHDSSDEDGWTKLFDATEKAFGPVSTLVNNAGIAVNKSVEETTTAEWRKLLAVNLDGVFFGTRLGIQRMKNKGLGASIINMSSIEGFVGDPSLGAYNASKGAVRIMSKSAALDCALKDYDVRVNTVHPGYIKTPLVDDLPGAEEAMSQRTKTPMGHIGEPNDIAYICVYLASNESKFATGSEFVVDGGYTAQ
notes: NADPH-dependent (R-specific) alcohol dehydrogenase of Lactobacillus brevis; 251 amino acid residues and 26.6 kDa per subunit as printed; calculated mass of the monomer with StrepTag-II 28.2 kDa; The plasmid pASK-IBA5plus-Lbadh^WT was a gift (Prof. W. Kroutil); not shown: Strep-tag II, N-terminal, kept
On to B1, for which the “stoichiometry N” value came out at 4.
